Numbering of substitutions follows the chain as printed. Names and notes keep the numbering of the source.
Experiments:
[1] = target: T1, AMHR-II/Fc fusion protein (human, UniProt Q16671 18-149, limits assumed); assay: phage-scFv ELISA on AMHRII-Fc; mean of at least four values, standard deviation in parentheses
T1 construct: also called AMHR-II recombinant receptor expressed in the form of fusion protein with a region Fc; recombinant target; not shown: Fc region
Method: The secondary screening consists of analysing the clones selected at the end of the primary screening individually. For this, the 113 unique mutated clones were transferred to a culture plate (96 well-1.2 ml).
After production of the phage particles, the culture supernatants containing the phages-scFv were used for carrying out an ELISA binding assay. The binding of the mutated clones was evaluated at two dilutions (½ and ¼ of the supernatants containing the scFv-phages). The murine clones (mLFB112) and humanized clones (huLFB112) constructed under the scFv-phages format were used as references on each of the assay plates. Each of the mutated clones was tested at least twice.

[2] = target: T2, AMHRII receptor expressed on cells (cov434-AMHRII, Asc 1, META 2815) (human, UniProt Q16671 18-573); assay: cell-based or functional assay
T2 sequence (looked up): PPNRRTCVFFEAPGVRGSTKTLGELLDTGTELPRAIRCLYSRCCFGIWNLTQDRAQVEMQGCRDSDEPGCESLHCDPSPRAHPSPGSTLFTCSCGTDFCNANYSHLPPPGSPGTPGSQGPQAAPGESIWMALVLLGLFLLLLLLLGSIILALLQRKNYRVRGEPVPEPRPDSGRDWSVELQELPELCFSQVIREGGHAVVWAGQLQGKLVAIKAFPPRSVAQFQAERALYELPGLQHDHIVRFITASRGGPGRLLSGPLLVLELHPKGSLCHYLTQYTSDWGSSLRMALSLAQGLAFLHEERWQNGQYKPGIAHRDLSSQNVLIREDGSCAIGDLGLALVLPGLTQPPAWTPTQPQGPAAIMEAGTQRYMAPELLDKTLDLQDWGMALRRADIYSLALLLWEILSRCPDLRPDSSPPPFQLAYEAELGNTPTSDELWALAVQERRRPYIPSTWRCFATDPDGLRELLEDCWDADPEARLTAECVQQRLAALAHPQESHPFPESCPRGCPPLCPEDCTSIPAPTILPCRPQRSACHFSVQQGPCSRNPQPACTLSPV

[3] = target: T2, AMHRII receptor expressed on cells …; assay: cell-based or functional assay; remark: listed apart in the source
[4] = target: T3, Epitope peptide GGGGNLTQDRAQVEMQGSR; assay: method not stated; Example 2, heading names cov434-AMHR-II cells and the epitope peptide
T3 peptide: GGGGNLTQDRAQVEMQGSR

[5] = target: T2, AMHRII receptor expressed on cells …; assay: cell-based or functional assay; remark: listed apart in the source
[6] = target: T1, AMHR-II/Fc fusion protein; assay: SPR, BIAcore X100; ratio against the chimeric 12G4
Method: (§1) The affinity of the antibodies for their antigen, AMHR-II, is determined by the SPR (Surface Plasmon Resonance) technique on BIACore X100 (BIACore, GE Healthcare). The AMHR-II recombinant receptor, expressed in the form of fusion protein with a region Fc, is immobilized by covalent coupling between its amine functions and the carboxyl groups of dextran activated in succinimide esters, present on the surface of the type CM5 sensor chip. The COOH groups of the sensor chip are activated for 7 minutes with EDC/NHS mixture (0.1 M of N-hydroxysuccinimide and 0.1 M of 3-(N,N-dimethylamino)propyl-N-ethylcarbodiimide) at a flow of 10 μl/min then the AMHR-II/Fc fusion protein, diluted to 5 μg/ml in 10 mM sodium acetate buffer, pH 4.0, is injected at […] on track 2 of the sensor chip so as to reach 300 RU. The ester groups that have not reacted with the amines of the fusion protein are deactivated by injection of a solution of ethanolamine-HCl 1M, pH 8.5 for 7 min at a flow of 10 μl:min. Track 1, serving as negative control, was activated and deactivated like track 2.
(§2) All the measurements are carried out at 25° C. The antibodies to be analysed are diluted in HBS-EP running buffer (BIACore, GE Healthcare) at concentrations from 6.25 to 3333 nM and injected on the sensor chip for 2 min at a flow of 30 μl/min. The dissociation step is monitored for 10 min and then the surface is regenerated by injection of 10 mM glycine buffer, pH 1.5 for 30 s at 10 μl/min.
(§3) The sensorgrams obtained are analysed using the 1:2 kinetic model of the BIAevaluation 3.1 software.

[7] = target: T1, AMHR-II/Fc fusion protein; assay: SPR, BIAcore X100; AMHR-II/Fc immobilised on CM5 chip, antibody injected; 25 C
Method: as §1, §2, §3

B1: 4C_35 (mutated huLFB112 phage-scFv clone) (scFv, part only; not given: scFv linker and phage partner, V domains shown, not shown: another chain or arm of the molecule; large carriers; small tags and cut ends)
VH: QVQLVQSGAEVKKPGASVKVSCKASGYTFTSYHIHWVRQAPGQRPEWMGWIYPGDDSTKYSQKFQGRVTITRDTSASTAYMELSSLRSEDTAVYYCTRGDRFAYWGQGTLVTVSS
VL: DIQMTQSPSTLSASVGDRVTITCRASSSVRYIAWYQQKPGKAPKLLIYSTSSLKSGVPSRFSGSGSGTEFTLTISSLQPDDFATYYCLQWSSYPWTFGGGTKVEIK
Ratio AB invention/chimeric 12G4 [1]: 1.9
Ratio AB invention/humanized 12G4 [1]: 4.3

B2: 5B_81 (mutated huLFB112 phage-scFv clone) (scFv, part only; not given: scFv linker and phage partner, V domains shown, not shown: another chain or arm of the molecule; large carriers; small tags and cut ends)
VH: B1 VH
VL: B1 VL with K54E
Ratio AB invention/chimeric 12G4 [1]: 1.6
Ratio AB invention/humanized 12G4 [1]: 3.5

B3: 4F_196 (mutated huLFB112 phage-scFv clone) (scFv, part only; not given: scFv linker and phage partner, V domains shown, not shown: another chain or arm of the molecule; large carriers; small tags and cut ends)
VH: B1 VH with Q3E, P45L, Q62R, E89D
VL: B1 VL with K54E
Ratio AB invention/chimeric 12G4 [1]: 1.5
Ratio AB invention/humanized 12G4 [1]: 3

B4: unmutated humanized 12G4 monoclonal antibody (antibody, human IgG1, kappa, V domains shown)
VH: B1 VH with P45L
VL: DIQMTQSPSTLSASVGDRVTITCRASSSVRYIAWYQQKPGKAPKLLIYSTSSLESGVPSRFSGSGSGTEFTLTISSLQPDDFATYYCLQWSSYPWTFGGGTKVEIKR
notes: Variable regions without leader joined to the constant regions; also called huLFB112; 632 07 107 Anti AMHRII hum 1st
% of lysis of ASC1 cells (ADCC with NK cells, LDH release) at 0.001 ng/ml antibody [2]: 0%
% of lysis of ASC1 cells (ADCC with NK cells, LDH release) at 0.005 ng/ml antibody [2]: 18%
% of lysis of ASC1 cells (ADCC with NK cells, LDH release) at 0.05 ng/ml antibody [2]: 2%
% of lysis of ASC1 cells (ADCC with NK cells, LDH release) at 0.5 ng/ml antibody [2]: 0%
% of lysis of ASC1 cells (ADCC with NK cells, LDH release) at 5 ng/ml antibody [2]: 7%
% of lysis of ASC1 cells (ADCC with NK cells, LDH release) at 50 ng/ml antibody [2]: 24%
% of lysis of ASC1 cells (ADCC with NK cells, LDH release) at 500 ng/ml antibody [2]: 50%
% of lysis of ASC1 cells (ADCC with NK cells, LDH release) at 5000 ng/ml antibody [2]: 50%
EC50 (ng/ml), ADCC on ASC1 cells [3]: 52.4 ng/mL
Emax (% of lysis), ADCC on ASC1 cells [3]: 52.4 % of lysis
Kd [4]: 5260 nM
koff [4]: 0.00962 s⁻¹
kon [4]: 1830 M⁻¹ s⁻¹

B5: mutated humanized 12G4 antibody 3C-23K produced in CHO (antibody, human IgG1, kappa, V domains shown)
VH: B1 VH with Q3R, P45L
VL: B4 VL with I47T, S49P, E54K
notes: also called 3C_23K CHO; 3C-23K-CHO
EC50, ADCC on META 2815 cells [5]: 0.467 µg/mL
KD chimeric/KD mutated [6]: 8.5
Kd [7]: 25 nM
koff [7]: 0.001 s⁻¹
kon [7]: 41000 M⁻¹ s⁻¹

B6: 3C_23 (mutated huLFB112 phage-scFv clone) (scFv, part only; not given: scFv linker and phage partner, V domains shown, not shown: another chain or arm of the molecule; large carriers; small tags and cut ends)
VH: B1 VH with Q3R, P45L
VL: B1 VL with I47T, S49P, K54E
Ratio AB invention/chimeric 12G4 [1]: 1.2
Ratio AB invention/humanized 12G4 [1]: 2.6

B7: mutated humanized 12G4 antibody 6B-78 produced in CHO (antibody, human IgG1, kappa, V domains shown)
VH: B1 VH with P45L
VL: B4 VL with E54K
notes: also called 6B_78 CHO
KD chimeric/KD mutated [6]: 2.6
Kd [7]: 81 nM
koff [7]: 0.0012 s⁻¹
kon [7]: 15000 M⁻¹ s⁻¹

B8: 3D_74 (mutated huLFB112 phage-scFv clone) (scFv, V domains shown)
VH: B1 VH with P45L
VL: B1 VL with S28P, K54E
notes: scFv on M13 phage, tested as culture supernatant; not shown: The 15-residue scFv peptide linker (positions 116-130 of the scFv numbering) and the M13 phage display partner
Ratio AB invention/chimeric 12G4 [1]: 0.8
Ratio AB invention/humanized 12G4 [1]: 2

B9: 6B_14 (mutated huLFB112 phage-scFv clone) (scFv, V domains shown)
VH: B1 VH with S31G, Q39E, P45L
VL: B1 VL with K54E
notes: scFv on M13 phage, tested as culture supernatant; Q39E: TAG codon suppressed, translated to E in E. coli XL1-blue; not shown: The 15-residue scFv peptide linker (positions 116-130 of the scFv numbering) and the M13 phage display partner
Ratio AB invention/chimeric 12G4 [1]: 1.1
Ratio AB invention/humanized 12G4 [1]: 2.6

B10: 5A_66 (mutated huLFB112 phage-scFv clone) (scFv, V domains shown)
VH: B1 VH with P45L, V68M
VL: B1 VL with K54E, F82S
notes: as for B8
Ratio AB invention/chimeric 12G4 [1]: 1.1
Ratio AB invention/humanized 12G4 [1]: 2.2

B11: 6B_87 (mutated huLFB112 phage-scFv clone) (scFv, V domains shown)
VH: B1 VH with Q1E, A24V, P45L
VL: B1 VL with K54E
notes: scFv on M13 phage, tested as culture supernatant; Q1E: TAG codon suppressed, translated to E in E. coli XL1-blue; not shown: The 15-residue scFv peptide linker (positions 116-130 of the scFv numbering) and the M13 phage display partner
Ratio AB invention/chimeric 12G4 [1]: 1
Ratio AB invention/humanized 12G4 [1]: 2.1

B12: mutated humanized 12G4 antibody 3C-23 produced in CHO (antibody, human IgG1, kappa, V domains shown)
VH: B1 VH with Q3R, P45L
VL: B4 VL with I47T, S49P
notes: also called 3C_23 CHO
KD chimeric/KD mutated [6]: 2.5
Kd [7]: 86 nM
koff [7]: 0.0043 s⁻¹
kon [7]: 50000 M⁻¹ s⁻¹

B13: 4F_169 (mutated huLFB112 phage-scFv clone) (scFv, V domains shown)
VH: B1 VH with Q6E, P45L, T58A
VL: B1 VL with K54E
notes: scFv on M13 phage, tested as culture supernatant; Q6E: TAG codon suppressed, translated to E in E. coli XL1-blue; not shown: The 15-residue scFv peptide linker (positions 116-130 of the scFv numbering) and the M13 phage display partner
Ratio AB invention/chimeric 12G4 [1]: 1
Ratio AB invention/humanized 12G4 [1]: 2

B14: 4E_153 (mutated huLFB112 phage-scFv clone) (scFv, V domains shown)
VH: B1 VH with P45L, D56N, I70N, F102S
VL: B1 VL with K54E
notes: as for B8
Ratio AB invention/chimeric 12G4 [1]: 1
Ratio AB invention/humanized 12G4 [1]: 2

B15: 5B_18 (mutated huLFB112 phage-scFv clone) (scFv, V domains shown)
VH: B1 VH with Q3E, A9T, P45L, A103T
VL: B1 VL with K54E
notes: scFv on M13 phage, tested as culture supernatant; Q3E: TAG codon suppressed, translated to E in E. coli XL1-blue; not shown: The 15-residue scFv peptide linker (positions 116-130 of the scFv numbering) and the M13 phage display partner
Ratio AB invention/chimeric 12G4 [1]: 0.9
Ratio AB invention/humanized 12G4 [1]: 1.8

B16: 6A_80 (mutated huLFB112 phage-scFv clone) (scFv, V domains shown)
VH: B1 VH with A24V, P45L, Q62E
VL: B1 VL with K54E
notes: scFv on M13 phage, tested as culture supernatant; Q62E: TAG codon suppressed, translated to E in E. coli XL1-blue; not shown: The 15-residue scFv linker (positions 116-130 of the scFv numbering) and the M13 phage display partner
Ratio AB invention/chimeric 12G4 [1]: 1.3
Ratio AB invention/humanized 12G4 [1]: 1.5

B17: 4D_91 (mutated huLFB112 phage-scFv clone) (scFv, V domains shown)
VH: B1 VH with Q1E, V11A, P45L
VL: B1 VL with K54E
notes: as for B11
Ratio AB invention/chimeric 12G4 [1]: 0.8
Ratio AB invention/humanized 12G4 [1]: 1.7

B18: 5A_28 (mutated huLFB112 phage-scFv clone) (scFv, V domains shown)
VH: B1 VH with P45L
VL: B1 VL with Y48H, S49P, K54E
notes: scFv on M13 phage, tested as culture supernatant; not shown: The 15-residue scFv linker (positions 116-130 of the scFv numbering) and the M13 phage display partner
Ratio AB invention/chimeric 12G4 [1]: 0.8
Ratio AB invention/humanized 12G4 [1]: 1.6

B19: 6B_76 (mutated huLFB112 phage-scFv clone) (scFv, V domains shown)
VH: B1 VH with A40V, P45L
VL: B1 VL with S49P, K54E
notes: as for B18
Ratio AB invention/chimeric 12G4 [1]: 0.8
Ratio AB invention/humanized 12G4 [1]: 1.7
